Data from PMC3257521 (Biochemistry, 2011).

Key:
[1] = molecular target: T1, Pnc1 (Saccharomyces cerevisiae, UniProt P53184); format: biochemical, S. cerevisiae
[2] = test system: nicotinamidase from S. cerevisiae; conditions: S. cerevisiae Pnc1, French et al.; cited from earlier work
[3] = molecular target: nicotinamidase from Fleischmann’s yeast; conditions: cited from earlier work
[4] = molecular target: nicotinamidase from Tortula cremoris; conditions: cited from earlier work
[5] = molecular target: nicotinamidase from M. lysodeikticus; conditions: cited from earlier work
[6] = molecular target: T1, Pnc1; experiment: Pnc1 competitive inhibition; format: biochemical, S. cerevisiae; conditions: for inhibition pattern: double-reciprocal analysis versus nicotinamide
[7] = molecular target: T1, Pnc1; experiment: Effect of EDTA or ZnCl2 on Pnc1 activity; format: biochemical, S. cerevisiae; conditions: data not shown
[8] = molecular target: T1, Pnc1; experiment: Product inhibition by ammonium ion, HPLC assay; format: biochemical, S. cerevisiae; conditions: for inhibition pattern: versus nicotinamide, data not shown
[9] = molecular target: nicotinamidase from Mycobacterium tuberculosis; conditions: cited from earlier work
[10] = molecular target: S. cerevisiae Pnc1; conditions: cited from earlier work
[11] = molecular target: T1, Pnc1; experiment: HPLC assay of substrate activity; format: biochemical, S. cerevisiae; conditions: for kcat: HPLC assay, no activity above detection limit of 10^−5 s^−1
[12] = molecular target: T1, Pnc1; conditions: 100 mM ammonium chloride and 5 mM nicotinic acid, 5 µM Pnc1, 150 minutes, pH 7.5; no nicotinamide detected
[13] = molecular target: T1, Pnc1; experiment: 15N kinetic isotope effect with substrates; format: biochemical, S. cerevisiae
[14] = substrate: Cc1cncc(C(N)=O)c1; format: biochemical, S. cerevisiae; conditions: other: substrate of Pnc1, pH 7.5, 25.0 °C
[15] = substrate: NC(=O)c1cccnc1; format: biochemical, S. cerevisiae; conditions: other: substrate of Pnc1, pH 7.5, 25.0 °C
[16] = substrate: NC(=O)c1ccccc1; format: biochemical, S. cerevisiae; conditions: other: substrate of Pnc1, pH 7.5, 25.0 °C
[17] = substrate: NC(=O)c1cnccn1; format: biochemical, S. cerevisiae; conditions: other: substrate of Pnc1, pH 7.5, 25.0 °C
[18] = substrate: NC(=S)c1cccnc1; format: biochemical, S. cerevisiae; conditions: other: substrate of Pnc1, pH 7.5, 25.0 °C
[19] = test system: Pnc1 WT or mutant; experiment: 15N kinetic isotope effect of Pnc1 mutants; format: biochemical, S. cerevisiae; conditions: substrate nicotinamide
[20] = test system: Pnc1 WT or mutant; experiment: 13C kinetic isotope effect of Pnc1 mutants; format: biochemical, S. cerevisiae; conditions: substrate nicotinamide
[21] = test system: Pnc1 WT or mutant; experiment: Steady-state kinetic parameters of Pnc1 mutants, enzyme-coupled assay; format: biochemical, S. cerevisiae; conditions: substrate nicotinamide; for kcat: pH 7.5

In the case of `C[n+]1cccc(C(N)=O)c1` [1-methylnicotinamide], the “fold decreased kcat/Km compared to nicotinamide” value [1] is listed as 8400 fold and the substrate activity [2] is listed as “no activity”.

For `CC(=O)c1cccnc1` [3-acetylpyridine], the Ki [3] is given as 65 µM, the Ki [4] is given as 305 µM and the Ki [5] is given as 160 µM. The Ki [6] was 316 ± 101 µM and the inhibition pattern [6] was “competitive inhibition”.

For `O=C(O)CN(CCN(CC(=O)O)CC(=O)O)CC(=O)O` [EDTA, ethylenediaminetetraacetic acid], the “inhibition of Pnc1” value ([7]; 10 mM) was “did not inhibit”.

In the case of `[Cl-].[Cl-].[Zn+2]` [ZnCl2], the “effect on activity of wild type Pnc1” value ([7]; 2 mM) is reported as “failed to increase activity”.

For `Cl.N` [ammonium chloride], the “concentration required for inhibition” value [8] was “greater than 10 mM”, the inhibition pattern [8] was “non-competitive inhibition” and the inhibition pattern ([8]; listed as ammonium ion) was “non-competitive inhibition patterns”.

For `O=Cc1ccccc1` [benzaldehyde], the Ki [5] is given as 1800 µM, the Ki [6] is given as 20600 ± 5700 µM and the “fold less potent inhibitor compared to nicotinaldehyde” value [6] is given as 22,000 fold.

In the case of `O=Cc1cccnc1` [nicotinaldehyde], the Ki [5] is listed as 0.018 µM, the Ki [6] is listed as 0.94 ± 0.35 µM and the “Ki fold below the Km value of nicotinamide” value ([6]; vs Km 9.6 µM for nicotinamide) is listed as 10 fold. For the same molecule, the Ki [9] was 0.29 µM and the Ki [10] was 1.4 µM.

With `NC(=O)c1ccc[n+]([C@@H]2O[C@H](COP(=O)([O-])O)[C@@H](O)[C@H]2O)c1` [nicotinamide mononucleotide (NMN^+), nicotinamide mononucleotide] the substrate activity [11] was “not substrates” and the kcat [11] was < 10^−5 ^c s^−1.

For `O=C(O)c1cccnc1` [nicotinic acid], the Ki [6] is given as 120 ± 19 µM, the inhibition pattern [6] is given as “competitive inhibition patterns” and the inhibition ([10]; French et al.) is given as “no inhibition”. For the same molecule, the “reverse reaction rate (upper estimate)” value [12] was < 10^−5 s^−1.

With `O=C(O)c1cnccn1` [pyrazinoic acid] the Ki [6] was 6700 ± 1700 µM, the “fold higher Ki value compared to nicotinic acid” value [6] was 56 fold and the inhibition pattern [6] was “competitive inhibition patterns”.

For `NC(=S)c1cccnc1` [thionicotinamide], the “increase in 15N KIE value compared to nicotinamide” value [13] was 1.4% and the “15N KIE” value ([13]; on V/K, pH 7.5) was 1.0262 ± 0.0019.

With `NC(=O)C1=CN([C@@H]2O[C@H](COP(=O)(O)OP(=O)(O)OC[C@H]3O[C@@H](n4cnc5c(N)ncnc54)[C@H](O)[C@@H]3O)[C@@H](O)[C@H]2O)C=CC1` [β-nicotinamide adenine dinucleotide] the substrate activity [11] was “not substrates”, the kcat [11] was < 10^−5 ^c s^−1 and the kcat ([11]; listed as NAD^+) was < 10^−5 s^−1.

B1: Pnc1 (Saccharomyces cerevisiae S288C) (protein)
chain: MKTLIVVDMQNDFISPLGSLTVPKGEELINPISDLMQDADRDWHRIVVTRDWHPSRHISFAKNHKDKEPYSTYTYHSPRPGDDSTQEGILWPVHCVKNTWGSQLVDQIMDQVVTKHIKIVDKGFLTDREYYSAFHDIWNFHKTDMNKYLEKHHTDEVYIVGVALEYCVKATAISAAELGYKTTVLLDYTRPISDDPEVINKVKEELKAHNINVVDK
B1 gave a Km [14] of 61 ± 6 µM, a kcat [14] of 1.75 ± 0.05 s⁻¹ and a kcat/Km [14] of 29000 ± 2000 M⁻¹ s⁻¹. It also gave a Km [15] of 9.6 ± 2.1 µM, a kcat [15] of 0.69 ± 0.04 s⁻¹ and a kcat/Km [15] of 72000 ± 12000 M⁻¹ s⁻¹. It also gave a Km [16] of 25 ± 7 µM, a kcat [16] of 0.0088 ± 0.0004 s⁻¹ and a kcat/Km [16] of 350 ± 90 M⁻¹ s⁻¹. For the same molecule, the Km [17] was 157 ± 16 µM, the kcat [17] was 2.56 ± 0.1 s⁻¹ and the kcat/Km [17] was 16000 ± 1000 M⁻¹ s⁻¹. For the same molecule, the kcat/Km [18] was 50 ± 17 M⁻¹ s⁻¹, the “15N KIE” value ([19]; as percent) was ~ 1.25% and the “15N KIE” value ([19]; pH 7.5) was 1.0122 ± 0.0002. The “13C KIE” value ([20]; as percent) was ~ 1.25%, the “13C KIE” value ([20]; pH 7.5) was 1.0125 ± 0.0004 and the kcat [21] was 0.69 ± 0.04 s⁻¹.

B2: H53A (protein, UniProt P53184 1-216, looked up, variant H53A)
Nicotinamidase: MKTLIVVDMQNDFISPLGSLTVPKGEELINPISDLMQDADRDWHRIVVTRDWAPSRHISFAKNHKDKEPYSTYTYHSPRPGDDSTQEGILWPVHCVKNTWGSQLVDQIMDQVVTKHIKIVDKGFLTDREYYSAFHDIWNFHKTDMNKYLEKHHTDEVYIVGVALEYCVKATAISAAELGYKTTVLLDYTRPISDDPEVINKVKEELKAHNINVVDK
For B2, the kcat [21] was 0.014 ± 0.002 s⁻¹.

B3: H94A (protein, UniProt P53184 1-216, looked up, variant H94A)
Nicotinamidase: MKTLIVVDMQNDFISPLGSLTVPKGEELINPISDLMQDADRDWHRIVVTRDWHPSRHISFAKNHKDKEPYSTYTYHSPRPGDDSTQEGILWPVACVKNTWGSQLVDQIMDQVVTKHIKIVDKGFLTDREYYSAFHDIWNFHKTDMNKYLEKHHTDEVYIVGVALEYCVKATAISAAELGYKTTVLLDYTRPISDDPEVINKVKEELKAHNINVVDK
For B3, the kcat [21] was 0.020 ± 0.002 s⁻¹.

B4: D8E (protein, UniProt P53184 1-216, looked up, variant D8E)
Nicotinamidase: MKTLIVVEMQNDFISPLGSLTVPKGEELINPISDLMQDADRDWHRIVVTRDWHPSRHISFAKNHKDKEPYSTYTYHSPRPGDDSTQEGILWPVHCVKNTWGSQLVDQIMDQVVTKHIKIVDKGFLTDREYYSAFHDIWNFHKTDMNKYLEKHHTDEVYIVGVALEYCVKATAISAAELGYKTTVLLDYTRPISDDPEVINKVKEELKAHNINVVDK
For B4, the “15N KIE” value ([19]; pH 7.5) was 1.0218 ± 0.0015, the “13C KIE” value ([20]; pH 7.5) was 1.0258 ± 0.0012 and the “fold lower kcat compared to Pnc1 WT” value [21] was 100 fold. For the same molecule, the kcat [21] was 0.0070 ± 0.0001 s⁻¹.

B5: D8N (protein, UniProt P53184 1-216, looked up, variant D8N)
Nicotinamidase: MKTLIVVNMQNDFISPLGSLTVPKGEELINPISDLMQDADRDWHRIVVTRDWHPSRHISFAKNHKDKEPYSTYTYHSPRPGDDSTQEGILWPVHCVKNTWGSQLVDQIMDQVVTKHIKIVDKGFLTDREYYSAFHDIWNFHKTDMNKYLEKHHTDEVYIVGVALEYCVKATAISAAELGYKTTVLLDYTRPISDDPEVINKVKEELKAHNINVVDK
In the case of B5, the “fold lower kcat compared to Pnc1 WT” value [21] is reported as 1150 fold and the kcat [21] is reported as 0.0006 ± 0.0001 s⁻¹.

B6: D8A (protein, UniProt P53184 1-216, looked up, variant D8A)
Nicotinamidase: MKTLIVVAMQNDFISPLGSLTVPKGEELINPISDLMQDADRDWHRIVVTRDWHPSRHISFAKNHKDKEPYSTYTYHSPRPGDDSTQEGILWPVHCVKNTWGSQLVDQIMDQVVTKHIKIVDKGFLTDREYYSAFHDIWNFHKTDMNKYLEKHHTDEVYIVGVALEYCVKATAISAAELGYKTTVLLDYTRPISDDPEVINKVKEELKAHNINVVDK
In the case of B6, the “fold lower kcat compared to Pnc1 WT” value [21] is reported as 767 fold and the kcat [21] is reported as 0.0009 ± 0.0001 s⁻¹.

B7: K122A (protein, UniProt P53184 1-216, looked up, variant K122A)
Nicotinamidase: MKTLIVVDMQNDFISPLGSLTVPKGEELINPISDLMQDADRDWHRIVVTRDWHPSRHISFAKNHKDKEPYSTYTYHSPRPGDDSTQEGILWPVHCVKNTWGSQLVDQIMDQVVTKHIKIVDAGFLTDREYYSAFHDIWNFHKTDMNKYLEKHHTDEVYIVGVALEYCVKATAISAAELGYKTTVLLDYTRPISDDPEVINKVKEELKAHNINVVDK
In the case of B7, the “fold lower kcat compared to Pnc1 WT” value [21] is reported as 16 fold and the kcat [21] is reported as 0.044 ± 0.023 s⁻¹.

B8: D51A (protein, UniProt P53184 1-216, looked up, variant D51A)
Nicotinamidase: MKTLIVVDMQNDFISPLGSLTVPKGEELINPISDLMQDADRDWHRIVVTRAWHPSRHISFAKNHKDKEPYSTYTYHSPRPGDDSTQEGILWPVHCVKNTWGSQLVDQIMDQVVTKHIKIVDKGFLTDREYYSAFHDIWNFHKTDMNKYLEKHHTDEVYIVGVALEYCVKATAISAAELGYKTTVLLDYTRPISDDPEVINKVKEELKAHNINVVDK
With B8 the “15N KIE” value ([19]; pH 7.5) was 1.0166 ± 0.0018, the “13C KIE” value ([20]; pH 7.5) was 1.0075 ± 0.0015 and the kcat [21] was 0.020 ± 0.005 s⁻¹.

B9: D51N (protein, UniProt P53184 1-216, looked up, variant D51N)
Nicotinamidase: MKTLIVVDMQNDFISPLGSLTVPKGEELINPISDLMQDADRDWHRIVVTRNWHPSRHISFAKNHKDKEPYSTYTYHSPRPGDDSTQEGILWPVHCVKNTWGSQLVDQIMDQVVTKHIKIVDKGFLTDREYYSAFHDIWNFHKTDMNKYLEKHHTDEVYIVGVALEYCVKATAISAAELGYKTTVLLDYTRPISDDPEVINKVKEELKAHNINVVDK
With B9 the “15N KIE” value ([19]; as percent) was ~ 0.5%, the “15N KIE” value ([19]; pH 7.5) was 1.0047 ± 0.0006 and the “13C KIE” value ([20]; as percent) was ~ 0.5%. The “13C KIE” value ([20]; pH 7.5) was 1.0058 ± 0.0006, the “fold more active than the D51A mutant” value [21] was 3 fold and the kcat [21] was 0.064 ± 0.012 s⁻¹.
